# B1: catalase from bovine liver (enzyme, UniProt P00432 1-527, looked up)
# chain: MADNRDPASDQMKHWKEQRAAQKPDVLTTGGGNPVGDKLNSLTVGPRGPLLVQDVVFTDEMAHFDRERIPERVVHAKGAGAFGYFEVTHDITRYSKAKVFEHIGKRTPIAVRFSTVAGESGSADTVRDPRGFAVKFYTEDGNWDLVGNNTPIFFIRDALLFPSFIHSQKRNPQTHLKDPDMVWDFWSLRPESLHQVSFLFSDRGIPDGHRHMNGYGSHTFKLVNANGEAVYCKFHYKTDQGIKNLSVEDAARLAHEDPDYGLRDLFNAIATGNYPSWTLYIQVMTFSEAEIFPFNPFDLTKVWPHGDYPLIPVGKLVLNRNPVNYFAEVEQLAFDPSNMPPGIEPSPDKMLQGRLFAYPDTHRHRLGPNYLQIPVNCPYRARVANYQRDGPMCMMDNQGGAPNYYPNSFSAPEHQPSALEHRTHFSGDVQRFNSANDDNVTQVRTFYLKVLNEEQRKRLCENIAGHLKDAQLFIQKKAVKNFSDVHPEYGSRIQALLDKYNEEKPKNAVHTYVQHGSHLSAREKANL
# notes: catalase from bovine liver, MW 250 kD, pI 5.4; Immobilised copy is coupled to Toyopearl AF-Amino-650M particles with EDC and NHS; source: bought: Sigma Aldrich (C9322)
# Biological target: the molecule itself
# Assay: self-interaction chromatography; the same protein immobilised on Toyopearl particles (surface coverage ~30-40%) and injected (5-15 mg/mL, 10 uL, 0.5 mL/min); b2 from first-moment retention; increasing ionic strength of different sodium salts; 20 mM sodium phosphate pH 7.0 for lactoferrin, catalase and con A, 50 mM sodium acetate pH 4.5 for lysozyme
protein,measurement,value
B1,binding result,binds

# From article PMC4644993, “The second virial coefficient as a predictor of protein aggregation propensity: A self-interaction chromatography study” (European Journal of Pharmaceutics and Biopharmaceutics, 2015)
